Values of other authors, collected in PMC3585250.

Target: integrin αvβ3 (Homo sapiens) (UniProt P06756)
UniProt P06756, sequence (P06756 31-1048, chain 1 of 2): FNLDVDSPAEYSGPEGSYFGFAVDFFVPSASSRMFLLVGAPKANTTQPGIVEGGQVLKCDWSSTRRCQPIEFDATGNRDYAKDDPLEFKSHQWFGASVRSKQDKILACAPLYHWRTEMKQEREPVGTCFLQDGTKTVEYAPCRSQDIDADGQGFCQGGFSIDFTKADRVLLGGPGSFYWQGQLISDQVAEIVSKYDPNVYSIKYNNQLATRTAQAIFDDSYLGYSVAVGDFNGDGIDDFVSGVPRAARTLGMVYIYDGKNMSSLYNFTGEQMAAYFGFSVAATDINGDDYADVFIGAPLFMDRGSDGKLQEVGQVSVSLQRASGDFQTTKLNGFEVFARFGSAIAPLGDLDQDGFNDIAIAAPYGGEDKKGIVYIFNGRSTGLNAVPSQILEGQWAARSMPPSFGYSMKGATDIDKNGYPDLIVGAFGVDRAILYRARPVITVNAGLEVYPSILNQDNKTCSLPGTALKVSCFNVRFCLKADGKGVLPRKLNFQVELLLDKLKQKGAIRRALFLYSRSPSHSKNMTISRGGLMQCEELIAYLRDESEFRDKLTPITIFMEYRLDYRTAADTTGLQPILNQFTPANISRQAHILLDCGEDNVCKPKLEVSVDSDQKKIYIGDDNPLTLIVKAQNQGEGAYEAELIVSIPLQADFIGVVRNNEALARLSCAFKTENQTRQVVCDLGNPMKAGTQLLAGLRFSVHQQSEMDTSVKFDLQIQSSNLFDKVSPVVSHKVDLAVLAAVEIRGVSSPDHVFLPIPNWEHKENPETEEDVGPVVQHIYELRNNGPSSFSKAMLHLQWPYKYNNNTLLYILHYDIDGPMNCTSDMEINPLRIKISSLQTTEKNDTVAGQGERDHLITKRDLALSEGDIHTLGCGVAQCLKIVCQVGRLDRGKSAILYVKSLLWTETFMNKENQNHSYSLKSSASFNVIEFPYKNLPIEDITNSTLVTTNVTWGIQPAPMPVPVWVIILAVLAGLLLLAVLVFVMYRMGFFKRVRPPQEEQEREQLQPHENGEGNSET
UniProt P06756, sequence (P05106 27-788, chain 2 of 2, further chain): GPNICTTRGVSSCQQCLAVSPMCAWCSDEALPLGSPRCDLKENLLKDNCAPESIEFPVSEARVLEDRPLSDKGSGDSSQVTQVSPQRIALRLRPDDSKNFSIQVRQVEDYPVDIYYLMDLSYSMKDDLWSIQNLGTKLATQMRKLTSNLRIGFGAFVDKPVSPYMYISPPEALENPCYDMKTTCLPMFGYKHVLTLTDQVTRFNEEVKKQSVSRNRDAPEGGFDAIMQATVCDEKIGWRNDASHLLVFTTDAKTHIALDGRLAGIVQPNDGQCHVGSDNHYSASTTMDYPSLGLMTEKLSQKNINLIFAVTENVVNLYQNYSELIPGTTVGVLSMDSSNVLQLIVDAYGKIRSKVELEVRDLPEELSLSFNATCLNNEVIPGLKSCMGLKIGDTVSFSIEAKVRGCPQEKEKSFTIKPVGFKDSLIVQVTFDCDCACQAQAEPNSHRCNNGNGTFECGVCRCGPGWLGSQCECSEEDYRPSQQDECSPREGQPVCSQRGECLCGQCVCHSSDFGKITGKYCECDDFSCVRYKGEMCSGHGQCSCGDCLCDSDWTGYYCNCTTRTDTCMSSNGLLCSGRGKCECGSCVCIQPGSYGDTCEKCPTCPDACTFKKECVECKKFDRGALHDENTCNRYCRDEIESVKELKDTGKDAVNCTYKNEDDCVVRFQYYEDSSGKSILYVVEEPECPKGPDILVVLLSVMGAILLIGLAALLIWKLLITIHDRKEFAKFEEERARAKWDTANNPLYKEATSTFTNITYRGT

FGF1 (from UniProt P05230)
Kd: 1000 nM
